The results in this text go back to US8404644 (MEAT AND LIVESTOCK AUSTRALIA, dated 2013).

The series concerns the molecule itself. The series is described as follows: gel filtration on Sephacryl 300 HR at pH 5.3 (self-association, homodimer). In general terms: Size exclusion chromatography separates by hydrodynamic size, large species first.

B1: bovine βB2 crystallin (other)
chain: ASDHQTQAGKPQPLNPKIIIFEQENFQGHSHELNGPCPNLKETGVEKAGSVLVQAGPWVGYEQANCKGEQFVFEKGEYPRWDSWTSSRRTDSLSSLRPIKVDSQEHKITLYENPNFTGKKMEVIDDDVPSFHAHGYQEKVSSVRVQSGTWVGYQYPGYRGLQYLLEKGDYKDSGDFGAPQPQVQSVRRIRDMQWHQRGAFHPSS
modifications: N-terminus acetylated (as extracted from bovine eye)
notes: Native intact protein purified from bovine eye lens; Wound Heal 1 = gel filtration at pH 5.3; Wound Heal 2 = 100 kDa retentate plus gel filtration, and also holds some βA3 crystallin; also called Crystallin βB2; Wound Heal 1
Turning to B1, the binding result is reported as “binds”.
